Like-named read-outs stand apart in the source and are kept apart here.
T1: prolactin (PRL) (BBT Boster Immunoleader) (human, UniProt P01236 29-227)
T1 construct: also called human prolactin; GH-analogous protein
T1 sequence (looked up): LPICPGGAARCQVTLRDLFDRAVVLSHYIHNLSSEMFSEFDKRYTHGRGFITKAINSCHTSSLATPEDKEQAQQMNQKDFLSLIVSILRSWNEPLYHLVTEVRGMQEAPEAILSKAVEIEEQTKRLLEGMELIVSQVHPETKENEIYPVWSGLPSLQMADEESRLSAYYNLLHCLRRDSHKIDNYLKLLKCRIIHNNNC


Experiments:
[1] = molecular target: T1, prolactin (PRL) (BBT Boster …); assay: competitive ELISA on immobilised human GH; IC50 (human GH)/IC50 (PRL) x 100
Procedure: (§1) IC₅₀ (nmol/L) for each of the anti-GH antibodies was determined by concentration-dependent curves of human GH and GH-analogous protein. The cross-reactivity to the GH-analogous protein was calculated by the following formula 3.

[2] = molecular target: T2, placental lactogen (PL) (Protein Laboratories Rehovot Ltd.) (human, UniProt P0DML2 27-217); assay: competitive ELISA on immobilised human GH; IC50 (human GH)/IC50 (PL) x 100
T2 construct: also called human placental lactogen; GH-analogous protein
T2 sequence (P0DML2 27-217 limits assumed): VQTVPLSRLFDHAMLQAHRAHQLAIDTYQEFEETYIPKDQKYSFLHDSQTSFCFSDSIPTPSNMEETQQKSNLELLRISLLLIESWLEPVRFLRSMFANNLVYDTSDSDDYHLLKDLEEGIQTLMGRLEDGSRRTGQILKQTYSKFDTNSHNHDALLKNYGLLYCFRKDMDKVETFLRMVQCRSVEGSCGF
Procedure: as §1

[3] = molecular target: recombinant cynomolgus monkey GH (cynomolgus monkey); assay: SPR (BIACORE 8K+), antibody captured by anti-human IgG (Fc) on CM5 chip, GH as analyte
recombinant cynomolgus monkey GH (cynomolgus monkey), sequence (P33093 27-217): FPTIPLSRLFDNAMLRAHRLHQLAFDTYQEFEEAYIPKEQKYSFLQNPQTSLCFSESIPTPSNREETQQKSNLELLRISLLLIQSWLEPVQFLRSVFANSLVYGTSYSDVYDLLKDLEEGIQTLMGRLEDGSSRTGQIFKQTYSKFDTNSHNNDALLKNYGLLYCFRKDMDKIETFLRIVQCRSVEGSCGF
Procedure: (§2) The binding properties of the recombinant anti-GH humanized antibody (Hu-13H02) and the Fc mutant thereof (Hu-13H02m) prepared in Example 11, and the chimeric antibody (Ch-13H02) prepared in Example 8 to the human GH (Pharmaceutical and Medical Device Regulatory Science Society of Japan) and the monkey GH (Example 3) were measured with SPR using BIACORE 8K+ (GE Healthcare Inc.). The antibody samples (1 μg/mL) of the three antibodies (Hu-13H02, Hu-13H02m, and Ch-13H02) were captured by anti-human IgG (Fc) antibody immobilized on a CM5 sensor chip, respectively. Next, the human GH ranging from 0.13 to 8.0 nmol/L, or the monkey GH ranging from 0.50 to 32 nmol/L was added to calculate binding and dissociation parameters.

[4] = molecular target: recombinant cynomolgus monkey GH (cynomolgus monkey); assay: cell-based or functional assay
[5] = molecular target: T3, recombinant human GH (Pharmaceutical and Medical Device Regulatory Science Society of Japan) (human, UniProt P01241 27-217); assay: GH-GHR binding inhibition ELISA: biotin-labeled GH (5.5 ng/mL) on captured GHR-hFc, antibody varied
T3 construct: also called human growth hormone; GH-22K
T3 sequence (P01241 27-217 limits assumed): as the sequence (P33093 27-217) above, with T105A, Y107D, D109N, S133P, N153D, I173V counted along it
Procedure: The GH-GHR binding inhibitory activity was measured by calculating the inhibition rate of binding signal of biotin-labeled GH to GHR extracellular region protein-human Fc fusion (GHR-hFc) which was immobilized on an ELISA plate via anti-human Fcγ mouse antibody. The biotin-labeled GH was prepared by labeling recombinant GH with EZ-Link Micro NHS-PEG4-Biotinylation kit (Thermo Fisher Scientific Inc.). The specific method is as follows. Anti-human Fcγ mouse antibody (Jackson ImmunoResearch Laboratories, Inc.) diluted to 1 μg/mL PBS was immobilized at 50 μL/well on a 96-well half-area immunoplate, and the plate was blocked with PBS comprising 1% BSA. Next, GHR-hFc (R&D Systems, Inc.) diluted with assay buffer (PBS comprising 0.2% BSA and 0.05% Tween 20) to 0.1 μg/mL was added at 50 μL/well to be captured on the plate. The plate was washed with washing buffer (PBS comprising 0.05% Tween 20), followed by mixing the equivalent amount of biotin-labeled GH diluted with assay buffer to final concentration of 5.5 ng/mL and a sample (anti-GH mouse mAb-comprising sample) diluted with assay buffer, and adding the resultant mixture at 50 μL/well, and the plate was left still at room temperature for 2 hours. […] The reaction was stopped by adding an aqueous solution of 0.5 mol/L H₂SO₄, and then the absorbance at 450 nm was measured with a plate reader.

[6] = molecular target: T3, recombinant human GH (Pharmaceutical …); assay: cell-based or functional assay
[7] = molecular target: T3, recombinant human GH (Pharmaceutical …); assay: cell-based or functional assay; remark: listed apart in the source
[8] = molecular target: T3, recombinant human GH (Pharmaceutical …); assay: SPR (BIACORE 8K+), antibody captured by anti-human IgG (Fc) on CM5 chip, GH as analyte
Procedure: as §2

[9] = molecular target: T3, recombinant human GH (Pharmaceutical …); assay: cell-based or functional assay; remark: listed apart in the source

| cross-reactivity [1] [%] | cross-reactivity [2] [%] | Kd [3] [nM] | koff [3] [s⁻¹] | kon [3] [M⁻¹ s⁻¹] | Neutralizing activity in GH-dependent Nb2 cell proliferation inhibition assay (IC50) [4] [pmol/L] | IC50 [5] [nM] | GH-dependent Nb2 cell proliferation inhibitory activity (IC50) [6] [pmol/L] | GH-dependent Nb2 cell proliferation inhibitory activity (IC50) [7] [pmol/L] | Kd [8] [nM] | koff [8] [s⁻¹] | kon [8] [M⁻¹ s⁻¹] | Neutralizing activity in GH-dependent Nb2 cell proliferation inhibition assay (IC50) [9] [pmol/L] | Binder |
| --- | --- | --- | --- | --- | --- | --- | --- | --- | --- | --- | --- | --- | --- |
| < 1 | < 1 | 0.13 | 6.2e-05 | 470000 | 48 | – | – | – | – | – | – | – | recombinant anti-GH humanized antibody (Hu-13H02) (antibody, human IgG1, V domains shown, also called humanized 13H02) VH: QVQMVQSGAEVKKPGASVKVSCKASGFTFTSSEISWLRQAPGQRLEWIAWIYPGTGSSKFNQKFTGKATLTADTSASTAYMELSSLRSEDTAVYYCARRGFFGGSFDYWGQGTTVTVSS VL: DIQLTQSPSFLSASVGDRVTITCTATSSVSSSYLHWYQQKPGKAPKLWIYSTSNLASGVPSRFSGSGSGTEFTLTISSLQPEDFATYYCHQYHHSPPTFGGGTKVEIK |
| < 1 | < 1 | 0.13 | 6.9e-05 | 520000 | 30.1 | – | – | – | – | – | – | – | anti-GH humanized antibody Fc mutant (Hu-13H02m) (antibody, human IgG1, kappa, V domains shown, also called Fc variant of Hu-13H02) VH: QVQMVQSGAEVKKPGASVKVSCKASGFTFTSSEISWLRQAPGQRLEWIAWIYPGTGSSKFNQKFTGKATLTADTSASTAYMELSSLRSEDTAVYYCARRGFFGGSFDYWGQGTTVTVSS VL: DIQLTQSPSFLSASVGDRVTITCTATSSVSSSYLHWYQQKPGKAPKLWIYSTSNLASGVPSRFSGSGSGTEFTLTISSLQPEDFATYYCHQYHHSPPTFGGGTKVEIKR |
| – | – | – | – | – | – | 0.0653 | 3.36 | – | – | – | – | – | anti-GH mouse mAb 13H02 (antibody, mouse IgG2a, V domains shown, also called parent mouse antibody (13H02)) VH: QGQMQQSGGELVNPGSSVKMSCKTSGFTFTSSEISWLKQKPGQSLEWIAWIYPGTGSSKFNQKFTGKAQLTAETSSSTAYMQLSSLTSEDSAIYYCARRGFFGGSFDYWGQGTTLTISS VL: QIVLAQSPAIMSASLGERVTMTCTATSSVSSSYLHWYQQKPGSSPKLWIYSTSNLASGVPARFSGSGSGTSYSLTISSMEAEDAATYYCHQYHHSPPTFGAGTKLELK |
| < 1 | < 1 | 0.074 | 3.4e-05 | 450000 | 13.6 | – | – | 6.27 | 0.012 | 2.4e-05 | 1.9e+06 | 2.65 | recombinant anti-GH mouse-human chimeric mAb (Ch-13H02) (antibody, human IgG1, V domains shown, also called Ch-13H2; anti-GH chimeric antibody) VH: QGQMQQSGGELVNPGSSVKMSCKTSGFTFTSSEISWLKQKPGQSLEWIAWIYPGTGSSKFNQKFTGKAQLTAETSSSTAYMQLSSLTSEDSAIYYCARRGFFGGSFDYWGQGTTLTISS VL: QIVLAQSPAIMSASLGERVTMTCTATSSVSSSYLHWYQQKPGSSPKLWIYSTSNLASGVPARFSGSGSGTSYSLTISSMEAEDAATYYCHQYHHSPPTFGAGTKLELK |

Reference: patent US20240391996A1 (TAISHO PHARMACEUTICAL, published 2024)
